Laboratory results from patent US20220096600A1.

Target: CCR5 on mouse periosteal skeletal stem cells / mouse cells in vivo (mouse) (UniProt P51682)
Experiment: cell-based or functional assay

Chain of UniProt P51682 (P51682 whole entry): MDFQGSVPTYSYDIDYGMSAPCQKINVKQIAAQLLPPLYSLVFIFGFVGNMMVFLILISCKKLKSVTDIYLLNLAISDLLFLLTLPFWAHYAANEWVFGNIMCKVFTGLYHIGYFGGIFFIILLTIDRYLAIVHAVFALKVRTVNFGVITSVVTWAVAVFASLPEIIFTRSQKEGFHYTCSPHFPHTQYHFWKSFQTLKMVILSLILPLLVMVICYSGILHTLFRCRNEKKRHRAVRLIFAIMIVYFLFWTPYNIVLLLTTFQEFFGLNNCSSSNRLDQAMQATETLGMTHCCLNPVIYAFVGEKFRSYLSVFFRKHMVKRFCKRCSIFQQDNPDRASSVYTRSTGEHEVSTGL

average in vivo migration speed of Mx1+aSMA+ P-SSCs under CCL5 administration: 57 µm/h
Substance: CCL5 (ligand)
